Results as given in patent publication US20120178691A1, “FACTOR VIII COMPOSITIONS AND METHODS OF MAKING AND USING SAME” (Amunix Operating Inc., priority 2010, published 2012).

B1: AC398 (protein)
chain: AVFVTQEEAHGVLHRRRRANAFLEELRPGSLERECKEEQCSFEEAREIFKDAERTKLFWISYSDGDQCASSPCQNGGSCKDQLQSYICFCLPAFEGRNCETHKDDQLICVNENGGCEQYCSDHTGTKRSCRCHEGYSLLADGVSCTPTVEYPCGKIPILEKRNASKPQGRIVGGKVCPKGECPWQVLLLVNGAQLCGGTLINTIWVVSAAHCFDKIKNWRNLIAVLGEHDLSEHDGDEQSRRVAQVIIPSTYVPGTTNHDIALLRLHQPVVLTDHVVPLCLPERTFSERTLAFVRFSLVSGWGQLLDRGATALELMVLNVPRLMTQDCLQQSRKVGDSPNITEYMFCAGYSDGSKDSCKGDSGGPHATHYRGTWYLTGIVSWGQGCATVGHFGVYTRVSQYIEWLQKLMRSEPRPGVLLRAPFPGSPGTSESATPESGPGSEPATSGSETPGTSESATPESGPGSEPATSGSETPGTSESATPESGPGTSTEPSEGSAPGSPAGSPTSTEEGTSESATPESGPGSEPATSGSETPGTSESATPESGPGSPAGSPTSTEEGSPAGSPTSTEEGTSTEPSEGSAPGTSESATPESGPGTSESATPESGPGTSESATPESGPGSEPATSGSETPGSEPATSGSETPGSPAGSPTSTEEGTSTEPSEGSAPGTSTEPSEGSAPGSEPATSGSETPGTSESATPESGPGTSTEPSEGSAPGSSS
B2: AC404 (protein)
chain: AVFVTQEEAHGVLHRRRRANAFLEELRPGSLERECKEEQCSFEEAREIFKDAERTKLFWISYSDGDQCASSPCQNGGSCKDQLQSYICFCLPAFEGRNCETHKDDQLICVNENGGCEQYCSDHTGTKRSCRCHEGYSLLADGVSCTPTVEYPCGKIPILEKRNASKPQGRIVGGKVCPKGECPWQVLLLVNGAQLCGGTLINTIWVVSAAHCFDKIKNWRNLIAVLGEHDLSEHDGDEQSRRVAQVIIPSTYVPGTTNHDIALLRLHQPVVLTDHVVPLCLPERTFSERTLAFVRFSLVSGWGQLLDRGATALELMVLNVPRLMTQDCLQQSRKVGDSPNITEYMFCAGYSDGSKDSCKGDSGGPHATHYRGTWYLTGIVSWGQGCATVGHFGVYTRVSQYIEWLQKLMRSEPRPGVLLRAPFPGSPGSPAGSPTSTEEGTSESATPESGPGTSTEPSEGSAPGSPAGSPTSTEEGTSTEPSEGSAPGTSTEPSEGSAPGTSESATPESGPGSEPATSGSETPGSEPATSGSETPGSPAGSPTSTEEGTSESATPESGPGTSTEPSEGSAPGTSTEPSEGSAPGSPAGSPTSTEEGTSTEPSEGSAPGTSTEPSEGSAPGTSESATPESGPGTSTEPSEGSAPGTSESATPESGPGSEPATSGSETPGTSTEPSEGSAPGTSTEPSEGSAPGTSESATPESGPGTSESATPESGPGSPAGSPTSTEEGTSESATPESGPGSEPATSGSETPGTSESATPESGPGTSTEPSEGSAPGTSTEPSEGSAPGTSTEPSEGSAPGTSTEPSEGSAPGTSTEPSEGSAPGTSTEPSEGSAPGSPAGSPTSTEEGTSTEPSEGSAPGTSESATPESGPGSEPATSGSETPGTSESATPESGPGSEPATSGSETPGTSESATPESGPGTSTEPSEGSAPGTSESATPESGPGSPAGSPTSTEEGSPAGSPTSTEEGSPAGSPTSTEEGTSESATPESGPGTSTEPSEGSAPGTSESATPESGPGSEPATSGSETPGTSESATPESGPGSEPATSGSETPGTSESATPESGPGTSTEPSEGSAPGSPAGSPTSTEEGTSESATPESGPGSEPATSGSETPGTSESATPESGPGSPAGSPTSTEEGSPAGSPTSTEEGTSTEPSEGSAPGTSESATPESGPGTSESATPESGPGTSESATPESGPGSEPATSGSETPGSEPATSGSETPGSPAGSPTSTEEGTSTEPSEGSAPGTSTEPSEGSAPGSEPATSGSETPGTSESATPESGPGTSTEPSEGSAPGSSS
B3: pBC0114: base construct expressing BDD FVIII, pcDNA4-FVIII_4-…-Myc-SPATG-His, lacking XTEN insertions (protein)
chain: MQIELSTCFFLCLLRFCFSATRRYYLGAVELSWDYMQSDLGELPVDARFPPRVPKSFPFNTSVVYKKTLFVEFTDHLFNIAKPRPPWMGLLGPTIQAEVYDTVVITLKNMASHPVSLHAVGVSYWKASEGAEYDDQTSQREKEDDKVFPGGSHTYVWQVLKENGPMASDPLCLTYSYLSHVDLVKDLNSGLIGALLVCREGSLAKEKTQTLHKFILLFAVFDEGKSWHSETKNSLMQDRDAASARAWPKMHTVNGYVNRSLPGLIGCHRKSVYWHVIGMGTTPEVHSIFLEGHTFLVRNHRQASLEISPITFLTAQTLLMDLGQFLLFCHISSHQHDGMEAYVKVDSCPEEPQLRMKNNEEAEDYDDDLTDSEMDVVRFDDDNSPSFIQI
modifications: Myc and His tags
B4: pBC 0114 (protein)
chain: B3 chain

Columns and labels:
[1] = Analytical size exclusion chromatography of XTEN fusion proteins; assay type: physicochemical; settings: for Apparent MW: SEC, calibrated with globular protein standards; for Apparent Molecular Weight Factor: apparent MW relative to actual MW; for RH: hydrodynamic radius from SEC
Description: Size exclusion chromatography analyses were performed on fusion proteins containing various therapeutic proteins and unstructured recombinant proteins of increasing length. […] Chromatogram profiles were monitored using OD214 nm and OD280 nm Column calibration for all assays were performed using a size exclusion calibration standard from BioRad; the markers include thyroglobulin (670 kDa), bovine gamma-globulin (158 kDa), chicken ovalbumin (44 kDa), equine myoglobuin (17 kDa) and vitamin B12 (1.35 kDa). […] Based on the SEC analyses for all constructs evaluated, including a […] composition, the apparent molecular weights, the apparent molecular weight factor (expressed as the ratio of apparent molecular weight to the calculated molecular weight) and the hydrodynamic radius (RH in nm) are shown in Table 16.

[2] = tested on: activation of factor X; assay: Chromogenix Coamatic Factor VIII activity assay; assay type: biochemical
Source text: BDD FVIII and FVIII-XTEN fusion protein constructs pBC0114, pBC0135, pBC0136, pBC0137, pBC0145, pBC0146, and pBC0149, in various configurations, including XTEN_AE288 and AG288 inserted at the C-terminus of the FVIII BDD sequence and FVIII-XTEN fusion proteins with AE42 and AE288 inserted after residue 745 (or residue 743) and before residue 1640 (or residue 1638) of the B-domain […], were expressed in transiently transfected Freestyle 293 cells, as described above, and tested for procoagulant activity. […] The assay was performed according to manufacturer's instructions using the end-point method, which was measured spectrophotometrically at OD405 nm A standard curve was created using purified FVIII protein at concentrations of 250, 200, 150, 100, 75, 50, 37.5, 25, 12.5, 6.25, 3.125 and 1.56 mU/ml. […] The cell culture media of the FVIII-XTEN constructs were obtained as described, above, and were tested in replicates at 1:50, 1:150, and 1:450 dilutions and the activity of each was calculated in U/ml.
Using the Chromogenix Coamatic Factor VIII (Chromogenix, cat#82258563) the activity of FVIII is assessed as follows. […] The color is then read spectrophotometrically at 405 nm The generated factor Xa and thus the intensity of color is proportional to the factor VIII activity in the sample. […]

[3] = tested on: FVIII activity; assay: Two-stage chromogenic FVIII activity assay of transient transfection cell culture supernatant; assay type: biochemical; settings: HEK293 cell culture supernatant, 5-day transient transfection
Description: Two FVIII-XTEN fusion proteins, FVIII-AE288 (F8X-40) and FVIII-AG288 (F8X-41), contain an AE288 XTEN or an […] XTEN, respectively, fused at the C-terminus of FVIII C2 domain. To determine if FVIII activity was retained after XTEN fusion, HEK293 cells were transfected separately with these two FVIII-XTEN fusion constructs by using polyethylenimine (PEI) in serum-free medium. At 3 or 5 days post-transfection, the cell culture supernatant was tested for FVIII activity by a two-stage chromogenic assay. Purified recombinant FVIII, calibrated against WHO international standard, was used to establish the standard curve in the chromogeinic assay. […] (Table 26).

Molecule	Apparent MW [1] [kDa]	Apparent Molecular Weight Factor [1]	RH [1] [nm]	Specific Activity ([2]; activity (Chromogenix) per concentration (ELISA)) [IU/mg]	Activity ([2]; cell culture medium of transiently transfected Freestyle 293 cells, Chromogenix Coamatic Factor VIII assay) [IU/ml]	FVIII activity ([3]; Sample A) [IU/ml]	FVIII activity ([3]; Sample B) [IU/ml]
B1	650	8.5	8.2				
B2	1900	14.7	10.1				
B3				5000	3.0		
B4						6.68	7.61
